{
  "source": "patent US20230181640A1",
  "about": "(SHANGHAI ABELZETA, published 2023)",
  "binders": {"B1": {"name": "hBCMA-ECD-Fc (fusion protein of human BCMA extracellular domain Met1-Ala54 and human IgG1 Fc fragment Pro100-Lys330) (Fc fusion, UniProt Q02223 1-54, looked up)", "chain": "MLQMAGQCSQNEYFDSLLHACIPCQLRCSSNTPPLTCQRYCNASVTNSVKGTNA", "notes": "range 1-54; also the immunogen; also called soluble extracellular domain of human BCMA; not shown: human IgG1 Fc fragment, Pro100-Lys330"}, "B2": {"name": "BCMA of K562-BCMA+ medium supernatant (soluble BCMA) (receptor, UniProt Q02223 1-54, looked up)", "chain": "B1 chain"}, "B3": {"name": "chimeric antibody 107A9A4D2VH/VL-1 (antibody, human IgG1, kappa, V domains shown)", "VH": "EVQLQQSGPVLVKPGASVKMSCKASGYTFTDLYMNWLKQSHGKRLEWIGVINPYNGGTSYNQKFKGKATLTVDKSSSTAYMDLNSLTSEDSAVYYCARGDSIYVMDYWGQGTSFTVSS", "VL": "ENVLTQSPAIMSASPGEKVTMTCSASSSVSYMHWYQQKSSTSPKLWIYDTSKLSSGVPGRFSGSGSGKSYSLTISSMEAEDVATYYCFQGSGYPLFTFGSGTKLEIKR", "notes": "IgG1,κ chimeric antibody, HEK 293T supernatant; also called 107A9A4D2VH paired with 107A9A4D2VL-1"}},
  "key": {"[1]": {"target": "T1, hybridoma antibody 6G10-1D7 (mAb001)", "T1 construct": "tested as supernatant and purified; also called CP01", "T1 sequence (VH, as listed by the source, chain 1 of 2)": "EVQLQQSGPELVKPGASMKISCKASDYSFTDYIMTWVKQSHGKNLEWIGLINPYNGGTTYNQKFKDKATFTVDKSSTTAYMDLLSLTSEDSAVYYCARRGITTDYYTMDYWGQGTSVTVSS", "T1 sequence (VL, as listed by the source, chain 2 of 2)": "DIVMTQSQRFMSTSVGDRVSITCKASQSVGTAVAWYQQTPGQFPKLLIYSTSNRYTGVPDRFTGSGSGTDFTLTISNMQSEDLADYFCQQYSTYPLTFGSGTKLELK", "experiment": "flow cytometry competition: hBCMA-ECD-Fc against K562-BCMA+ cells for mAb001 at 1 µg/ml"}, "[2]": {"target": "T1, hybridoma antibody 6G10-1D7 (mAb001)", "experiment": "flow cytometry competition: BCMA of K562-BCMA+ supernatant against K562-BCMA+ cells for mAb001 at 1 µg/ml"}, "[3]": {"target": "B1", "experiment": "ELISA, chimeric antibody supernatant"}, "[4]": {"target": "T2, human BCMA on cells (L-BCMA+, K562-BCMA+, A549-BCMA-1D6) (human, UniProt Q02223 1-184)", "T2 construct": "whole, on cells; the cell line of each assay is named under assay; also called L-BCMA-1E6-A4; K562-BCMA-B22D8", "T2 sequence (looked up)": "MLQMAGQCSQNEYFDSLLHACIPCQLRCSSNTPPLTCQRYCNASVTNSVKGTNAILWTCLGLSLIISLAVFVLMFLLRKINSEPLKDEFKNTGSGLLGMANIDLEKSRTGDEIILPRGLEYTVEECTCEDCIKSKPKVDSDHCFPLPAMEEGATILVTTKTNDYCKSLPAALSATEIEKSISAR", "experiment": "FACS, chimeric antibody supernatant, L-BCMA+ cells"}},
  "data": [
    {"binder": "B1", "values": [
      {"measurement": "IC50", "setting": "[1]", "result": 0.731, "unit": "mg/L"},
      {"measurement": "molar ratio at IC50", "setting": "[1]", "result": "1.7 molar ratio (:1)"}
    ]},
    {"binder": "B2", "values": [
      {"measurement": "IC50", "setting": "[2]", "result": 0.466, "unit": "mg/L"},
      {"measurement": "molar ratio at IC50", "setting": "[2]", "result": "10.4 molar ratio (:1)"}
    ]},
    {"binder": "B3", "values": [
      {"measurement": "ELISA (OD450 nm)", "setting": "[3]", "result": 0.13, "unit": "OD450"},
      {"measurement": "FACS (MFI)", "setting": "[4]", "result": 42.5, "unit": "MFI"}
    ]}
  ]
}
